For this assay, the target named is elastase (porcine pancreas, Sigma Aldrich) (porcine) (UniProt P00772). Nature of the assay: cell-based or functional assay.
Chain of elastase (porcine pancreas, Sigma Aldrich) (porcine) (P00772 27-266): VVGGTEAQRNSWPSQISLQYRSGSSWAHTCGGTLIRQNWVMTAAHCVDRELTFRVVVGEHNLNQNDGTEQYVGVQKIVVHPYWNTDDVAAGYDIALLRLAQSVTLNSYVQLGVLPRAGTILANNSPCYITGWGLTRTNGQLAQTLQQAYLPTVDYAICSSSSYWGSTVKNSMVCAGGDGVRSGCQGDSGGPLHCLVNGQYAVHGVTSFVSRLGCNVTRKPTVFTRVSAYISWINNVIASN

Chain of alpha-1-antitrypsin enriched native human HDL (P01009 25-418): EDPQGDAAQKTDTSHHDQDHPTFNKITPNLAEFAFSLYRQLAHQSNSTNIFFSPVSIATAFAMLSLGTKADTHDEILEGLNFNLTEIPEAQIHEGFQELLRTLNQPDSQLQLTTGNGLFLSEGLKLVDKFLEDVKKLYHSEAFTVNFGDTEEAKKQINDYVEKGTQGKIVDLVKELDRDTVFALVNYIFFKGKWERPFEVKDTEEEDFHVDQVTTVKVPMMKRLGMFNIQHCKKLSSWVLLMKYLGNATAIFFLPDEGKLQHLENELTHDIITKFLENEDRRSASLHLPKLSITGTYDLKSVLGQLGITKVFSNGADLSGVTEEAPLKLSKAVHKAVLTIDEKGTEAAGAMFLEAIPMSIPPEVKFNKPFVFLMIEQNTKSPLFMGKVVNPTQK

With “alpha-1-antitrypsin enriched native human HDL (from UniProt P01009 25-418)”, the elastase induced TNF-α production by J774 macrophages, change compared to PBS pretreatment was -97%.
